Test results as given in paper PMC12705809.

Biological target: Chaetomium thermophilum Pmt4 (protein O-mannosyltransferase 4), wild-type full-length (Chaetomium thermophilum)
Experiment: native MS; ctPmt4 purified in DDM, exchanged into 200 mM ammonium acetate pH 8.0 with 2x CMC detergent; Q Exactive UHMR, negative polarity; monomer and dimer peaks seen

stoichiometry N: 2
Substance: Chaetomium thermophilum Pmt4 (protein O-mannosyltransferase 4), wild-type full-length (enzyme)
